Experimental data: article PMC13071878 (2026)

Biological target: human angiotensin-converting enzyme 2, extracellular catalytic domain, produced in mammalian cells … (human, UniProt Q9BYF1 19-615)
Experiment: FACS

human angiotensin-converting enzyme 2, extracellular catalytic domain, produced in mammalian cells …, sequence (Q9BYF1 19-615): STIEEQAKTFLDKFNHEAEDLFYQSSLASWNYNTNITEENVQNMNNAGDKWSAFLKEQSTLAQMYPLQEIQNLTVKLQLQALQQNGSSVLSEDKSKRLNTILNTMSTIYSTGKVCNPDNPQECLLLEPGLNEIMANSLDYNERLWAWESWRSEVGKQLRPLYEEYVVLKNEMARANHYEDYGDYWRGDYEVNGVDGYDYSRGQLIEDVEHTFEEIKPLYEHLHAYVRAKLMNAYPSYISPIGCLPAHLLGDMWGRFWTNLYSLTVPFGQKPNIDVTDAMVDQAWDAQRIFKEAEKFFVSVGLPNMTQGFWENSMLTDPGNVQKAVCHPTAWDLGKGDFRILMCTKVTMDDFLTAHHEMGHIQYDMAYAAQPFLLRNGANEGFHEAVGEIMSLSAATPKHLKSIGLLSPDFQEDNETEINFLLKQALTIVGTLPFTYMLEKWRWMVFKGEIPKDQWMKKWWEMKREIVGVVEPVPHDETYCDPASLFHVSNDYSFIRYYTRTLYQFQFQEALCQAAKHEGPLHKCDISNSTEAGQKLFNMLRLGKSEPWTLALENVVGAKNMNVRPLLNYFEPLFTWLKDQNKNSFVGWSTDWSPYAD

B1: GR1.9 (N8A), yeast-displayed alanine mutant of GR1.4 (peptide)
peptide: ACEPLGYALFLCSG
Work on B1 yielded a Kd of over 1000 nM.
